According to US20040248240A1:
Where two headings read alike, the source gives them in different places.

Key:
Experiment in all cases: cell-based or functional assay
[1] = molecular target: rat brain type IIA α sub-unit of the voltage-gated sodium channel (rat) (UniProt P04775)
[2] = molecular target: rat brain type IIA α sub-unit of the voltage-gated sodium channel (rat) (UniProt P04775); remark: listed apart in the source
[3] = molecular target: rat brain type IIA α sub-unit of the voltage-gated sodium channel (rat) (UniProt P04775); remark: listed apart in the source

UniProt P04775, sequence (P04775 whole entry): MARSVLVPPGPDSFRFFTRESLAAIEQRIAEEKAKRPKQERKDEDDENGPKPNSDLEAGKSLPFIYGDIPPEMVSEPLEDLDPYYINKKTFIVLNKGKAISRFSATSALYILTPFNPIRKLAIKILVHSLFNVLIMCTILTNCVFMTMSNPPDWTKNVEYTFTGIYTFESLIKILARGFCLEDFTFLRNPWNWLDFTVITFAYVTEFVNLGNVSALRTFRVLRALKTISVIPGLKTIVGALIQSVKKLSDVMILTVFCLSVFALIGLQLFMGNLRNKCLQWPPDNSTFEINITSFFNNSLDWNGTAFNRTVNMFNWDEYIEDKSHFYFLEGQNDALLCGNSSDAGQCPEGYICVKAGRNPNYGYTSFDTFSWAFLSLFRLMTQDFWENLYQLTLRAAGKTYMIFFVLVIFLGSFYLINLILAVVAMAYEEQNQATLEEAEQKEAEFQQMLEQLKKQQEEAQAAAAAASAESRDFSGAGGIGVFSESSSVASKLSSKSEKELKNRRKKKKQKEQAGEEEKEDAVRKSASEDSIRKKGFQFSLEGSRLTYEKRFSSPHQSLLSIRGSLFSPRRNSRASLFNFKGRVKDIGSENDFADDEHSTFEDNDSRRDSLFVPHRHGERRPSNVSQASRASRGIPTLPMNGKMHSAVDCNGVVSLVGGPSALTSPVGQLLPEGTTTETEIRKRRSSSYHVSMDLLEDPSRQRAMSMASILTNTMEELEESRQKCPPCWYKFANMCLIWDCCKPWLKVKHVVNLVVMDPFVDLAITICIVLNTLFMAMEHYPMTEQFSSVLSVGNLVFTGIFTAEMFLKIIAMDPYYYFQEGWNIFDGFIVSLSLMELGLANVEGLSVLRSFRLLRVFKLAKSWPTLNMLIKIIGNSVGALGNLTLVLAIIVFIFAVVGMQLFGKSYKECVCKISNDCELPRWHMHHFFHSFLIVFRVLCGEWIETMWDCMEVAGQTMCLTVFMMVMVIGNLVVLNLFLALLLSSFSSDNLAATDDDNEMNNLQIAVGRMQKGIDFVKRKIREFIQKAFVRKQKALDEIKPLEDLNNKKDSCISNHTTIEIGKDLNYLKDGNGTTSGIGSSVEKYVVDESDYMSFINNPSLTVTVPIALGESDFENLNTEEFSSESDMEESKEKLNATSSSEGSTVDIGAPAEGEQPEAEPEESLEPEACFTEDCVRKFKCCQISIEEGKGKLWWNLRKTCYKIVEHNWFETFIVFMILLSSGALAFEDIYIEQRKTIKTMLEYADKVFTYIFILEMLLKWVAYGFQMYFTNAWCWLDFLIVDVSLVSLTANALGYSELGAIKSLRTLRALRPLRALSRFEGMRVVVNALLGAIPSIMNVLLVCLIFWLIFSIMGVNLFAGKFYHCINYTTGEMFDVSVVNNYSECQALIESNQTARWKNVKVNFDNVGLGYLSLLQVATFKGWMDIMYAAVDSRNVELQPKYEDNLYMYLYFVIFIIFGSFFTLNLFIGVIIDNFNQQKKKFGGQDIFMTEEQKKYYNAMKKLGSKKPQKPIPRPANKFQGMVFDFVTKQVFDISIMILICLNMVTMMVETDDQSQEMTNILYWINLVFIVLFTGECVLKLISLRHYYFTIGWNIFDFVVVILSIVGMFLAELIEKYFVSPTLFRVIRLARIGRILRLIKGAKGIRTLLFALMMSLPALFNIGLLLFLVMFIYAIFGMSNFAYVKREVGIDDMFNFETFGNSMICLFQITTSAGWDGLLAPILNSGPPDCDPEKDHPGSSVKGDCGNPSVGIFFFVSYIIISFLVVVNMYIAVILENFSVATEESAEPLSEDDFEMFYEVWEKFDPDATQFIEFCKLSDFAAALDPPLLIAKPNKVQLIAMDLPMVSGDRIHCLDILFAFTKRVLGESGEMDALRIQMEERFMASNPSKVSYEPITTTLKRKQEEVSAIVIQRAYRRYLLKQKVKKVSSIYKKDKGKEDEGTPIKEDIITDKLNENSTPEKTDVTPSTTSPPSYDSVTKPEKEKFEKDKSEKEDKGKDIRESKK

Molecule: rat voltage-gated sodium channel β1 sub-unit (from UniProt Q00954 19-218)
- Inactivation timecourse, Percentage in fast mode [1]: 95%
- Inactivation timecourse, time constant 1 [1]: 1.4 ms
- Inactivation timecourse, time constant 2 [1]: 24.7 ms
- Recovery from inactivation, Percentage in fast mode [1]: 84%
- Recovery from inactivation, time constant 1 [1]: 2 ms
- Recovery from inactivation, time constant 2 [1]: 148 ms
- Voltage-dependence of inactivation, V½ (mV) [1]: -49.1 mV
- Voltage-dependence of inactivation, k (mV) [1]: 5.9 mV
- inactivation time constant 1 at -10 mV (two-electrode voltage clamp, oocytes) [1]: 1.3 ms
- inactivation time constant 2 at -10 mV (two-electrode voltage clamp, oocytes) [1]: 22.7 ms

B1: human voltage-gated sodium channel β3 sub-unit (protein)
chain: FPVCVEVPSETEAVQGNPMKLRCISCMKREEVEATTVVEWFYRPEGGKDFLIYEYRNGHQEVESPFQGRLQWNGSKDLQDVSITVLNVTLNDSGLYTCNVSREFEFEAHRPFVKTTRLIPLRVTEEAGEDFTSVVSEIMMYILLVFLTLWLLIEMIYCYRKVSKAEEAAQENASDYLAIPSENKENSAVPVEE
- inactivation time constant 1 [2]: 1 ms
- inactivation time constant 2 [2]: 9.1 ms

B2: rat voltage-gated sodium channel β3 sub-unit (protein)
chain: VCVEVPSETEAVQGNPMKLRCISCMKREEVEATTVVEWFYRPEGGKDFLIYEYRNGHQEVESPFQGRLQWNGSKDLQDVSITVLNVTLNDSGLYTCNVSREFEFEAHRPFVKTTRLIPLRVTEEAGEDFTSVVSEIMMYILLVFLTLWLFIEMIYCYRKVSKAEEAAQENASDYLAIPSENKENSVVPVEE
- Inactivation timecourse, Percentage in fast mode [2]: 85%
- Inactivation timecourse, time constant 1 [2]: 1.5 ms
- Inactivation timecourse, time constant 2 [2]: 24.7 ms
- Recovery from inactivation, Percentage in fast mode [2]: 73%
- Recovery from inactivation, time constant 1 [2]: 4.1 ms
- Recovery from inactivation, time constant 2 [2]: 170 ms
- Voltage-dependence of inactivation, V½ (mV) [2]: -49.3 mV
- Voltage-dependence of inactivation, k (mV) [2]: 6.1 mV
- inactivation time constant 1 at -10 mV (two-electrode voltage clamp, oocytes) [2]: 1 ms
- inactivation time constant 2 at -10 mV (two-electrode voltage clamp, oocytes) [2]: 23.8 ms
- steady-state inactivation, V1/2 (midpoint) [2]: -49.4 mV
- Recovery from inactivation, time constant 1 [3]: 1.9 ms
- Recovery from inactivation, time constant 2 [3]: 198 ms
